Test results as given in article PMC6879491 (Nature Communications, 2019).
One block for each binder: values may come before it.

Experiments:
Assay in all cases: cell-bound Gaussia luciferase activity (equilibrium binding on intact cells); Jurkat (CD3, CD45) or U266 (HLA-A2) cells, 1 h at 37 °C with increasing concentrations of GpL fusion proteins, washed five times with ice-cold PBS; specific binding = total minus non-specific
Details in all cases: partners not purified
[1] = target: T1, CD3 on Jurkat cells (Homo sapiens (Jurkat, donor T cells), UniProt P07766)
T1 construct: CD3ε, the chain addressed by the diL2K scFv, on the surface of CD3-positive cells; On cells CD3ε stands within the TCR-CD3 complex; also called CD3ε; CD3 antigen; source: on donor T cells (functional assays)

[2] = target: T2, CD45 on cells (Homo sapiens (Jurkat, THP-1), UniProt P08575)
T2 construct: CD45 on the surface of human cell lines; also called pan-hematopoietic lineage marker CD45; source: on THP-1 cells (functional assays)
T2 sequence (P08575 26-1306): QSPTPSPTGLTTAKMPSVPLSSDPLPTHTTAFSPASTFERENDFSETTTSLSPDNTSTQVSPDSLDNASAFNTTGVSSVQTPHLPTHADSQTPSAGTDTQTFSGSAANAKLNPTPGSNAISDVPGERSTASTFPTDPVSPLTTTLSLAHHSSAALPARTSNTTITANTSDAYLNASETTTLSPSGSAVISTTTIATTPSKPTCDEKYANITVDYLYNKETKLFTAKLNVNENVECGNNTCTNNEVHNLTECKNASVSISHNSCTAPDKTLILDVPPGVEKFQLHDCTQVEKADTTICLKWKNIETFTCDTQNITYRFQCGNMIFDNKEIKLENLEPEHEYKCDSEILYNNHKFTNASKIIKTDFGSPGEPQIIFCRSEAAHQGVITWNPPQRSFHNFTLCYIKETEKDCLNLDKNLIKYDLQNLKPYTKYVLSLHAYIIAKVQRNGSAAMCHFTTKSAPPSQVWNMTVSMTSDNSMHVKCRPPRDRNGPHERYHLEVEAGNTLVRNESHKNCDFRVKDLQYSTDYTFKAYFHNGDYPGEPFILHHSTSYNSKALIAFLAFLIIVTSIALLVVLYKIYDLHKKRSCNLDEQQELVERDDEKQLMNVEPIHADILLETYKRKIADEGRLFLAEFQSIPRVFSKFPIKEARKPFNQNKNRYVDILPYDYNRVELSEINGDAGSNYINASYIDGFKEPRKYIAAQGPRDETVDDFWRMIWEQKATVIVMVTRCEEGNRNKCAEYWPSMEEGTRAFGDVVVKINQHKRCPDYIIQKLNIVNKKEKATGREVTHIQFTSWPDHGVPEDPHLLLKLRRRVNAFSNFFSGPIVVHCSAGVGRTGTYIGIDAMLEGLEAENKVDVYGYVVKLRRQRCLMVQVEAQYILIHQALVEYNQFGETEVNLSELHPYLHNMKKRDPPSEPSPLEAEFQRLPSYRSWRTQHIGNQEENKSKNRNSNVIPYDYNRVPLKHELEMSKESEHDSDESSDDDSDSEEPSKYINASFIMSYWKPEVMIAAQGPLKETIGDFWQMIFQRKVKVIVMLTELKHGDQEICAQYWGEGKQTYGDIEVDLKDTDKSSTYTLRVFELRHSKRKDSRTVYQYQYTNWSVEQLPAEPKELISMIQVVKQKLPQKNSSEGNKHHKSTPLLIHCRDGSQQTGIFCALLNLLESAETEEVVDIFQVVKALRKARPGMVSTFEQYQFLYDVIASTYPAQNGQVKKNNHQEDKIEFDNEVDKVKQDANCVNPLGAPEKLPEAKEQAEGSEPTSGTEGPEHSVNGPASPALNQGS

[3] = target: T3, HLA-A2 on cells (Homo sapiens, HLA-A*02:01 (allele …, strain))
T3 construct: HLA-A2 on the surface of HLA-A2-positive human cell lines; source: on THP-1 cells (functional assays)

Kd [1]: 11.1 nM
B1: scFvαCD3-GpL (scFv, V domains shown)
VH: DVQLVQSGAEVKKPGASVKVSCKASGYTFTRYTMHWVRQAPGQGLEWIGYINPSRGYTNYADSVKGRFTITTDKSTSTAYMELSSLRSEDTATYYCARYYDDHYCLDYWGQGTTVTVSS
VL: DIVLTQSPATLSLSPGERATLSCRASQSVSYMNWYQQKPGKAPKRWIYDTSKVASGVPARFSGSGSGTDYSLTINSLEAEDAATYYCQQWSSNPLTFGGGTKVEIK
notes: scFv of the anti-CD3ε antibody diL2K (de-immunized version of mouse monoclonal L2K); as the anti-CD3 scFv of m3 (GenBank MN432903); Expression plasmid pCR3; also called scFvCD3-GpL; anti-CD3 scFv fused to Gaussia princeps luciferase; source: Hek293, electroporated, secreted, in supernatant

Kd [2]: 11.8 nM
B2: scFvαCD45-GpL (scFv, V domains shown)
VH: QVQLVESGGGLVQPGGSLKLSCAASGFDFSRYWMSWVRQAPGKGLEWIGEINPTSSTINFTPSLKDKVFISRDNAKNTLYLQMSKVRSEDTALYYCARGNYYRYGDAMDYWGQGTSVTVSG
VL: DIVLTQSPASLAVSLGQRATISCRASKSVSTSGYSYLHWYQQKPGQPPKLLIYLASNLESGVPARFSGSGSGTDFTLNIHPVEEEDAATYYCQHSRELPFTFGSGTKLEIK
notes: as the scFv of m2 (GenBank MN432904); Expression plasmid pCR3; also called scFvCD45-GpL; anti-CD45 scFv fused to Gaussia princeps luciferase; source: Hek293, electroporated, secreted, in supernatant

Kd [3]: 0.9 nM
B3: scFvαHLA-A2-GpL (scFv, V domains shown)
VH: QVQLVQSGGGVVQPGGSLRVSCAASGVTLSDYGMHWVRQAPGKGLEWMAFIRNDGSDKYYADSVKGRFTISRDNSKKTVSLQMSSLRAEDTAVYYCAKNGESGPLDYWYFDLWGRGTLVTVSS
VL: DVVMTQSPSSLSASVGDRVTITCQASQDISNYLNWYQQKPGKAPKLLIYDASNLETGVPSRFSGSGSGTDFTFTISSLQPEDFATYYCQQYSSFPLTFGGGTKVDIK
notes: scFv of the human anti-HLA-A2/A28 antibody clone 3PF12 (VH GenBank AF163307, VL GenBank AF163308); as the scFv of m1 (GenBank MN432902); Expression plasmid pCR3; also called scFvHLA-A2-GpL; anti-HLA-A2 scFv fused to Gaussia princeps luciferase; source: Hek293, electroporated, secreted, in supernatant
